From US9260507B2, “Peptide promoting cell adhesion and migration” (Symatese, priority 2009, dated 2016) come the findings set out here.

The test system of data set [1] is normal human keratinocytes. Briefly: NHK wound closure in a confluent keratinocyte layer (time-lapse videomicroscopy). The settings on record: LG4/5 protein 10 μg/ml, peptide 20 μg/ml. It counts as cell-based. The protocol: NHKs were seeded in 24-well plates and grown until confluence. The medium was removed and a wound was made in the cell layer using a pipette tip. After rinsing with PBS, the areas were incubated with KBM-2 culture medium at 37° C. in the absence or presence of LG4/5 protein (10 μg/ml) or the peptide KKLRIKSKEK (SEQ ID NO: 1) (20 μg/ml). The behaviour of cells around the wound was then immediately followed by time-lapse videomicroscopy with an image recorded every hour for 48 hours in a moist chamber containing 5% CO2. (A) Images recorded at the beginning of the experiment, at 24 h and 48 h show the total area of the wound covered by cells during the experiment and under each condition (the black lines represent the edges of the wound at the start of recording). Bar, […]. (B) The wounded areas (without cells) were measured at the start, at 24 h (grey bars) and 48 h (black bars) using the Adobe Photoshop CS3 Extended program (version 10.0) in the different conditions. The rate of closure of each wound was expressed as a percentage of the initial wound. […]
Videomicroscopy experiments were performed with a Zeiss Axiovert 100M microscope fitted with a CCD camera (1 image every 10 minutes or every hour). In the experiments of FIG. 11, we analysed the movements of 100 cells using Metaview software (Roper Scientific, Princeton Instruments, Evry, France).

Another data set concerns HT1080 cells. The data set is described as follows: Inhibition of cell adhesion by competition (HT1080 cells on LG4/5 and LN332 substrates). Format: cell-based, Human. The settings on record: competitor in solution: peptide 20 μg/ml, LG4/5 protein 10 μg/ml, anti-LG4/5 antibody 10 μg/ml applied to substrate. The procedure: The LG4/5 (white bars) and LN332 (grey bars) proteins (1 μg/well) were adsorbed in 96-well plates. (A) Effect of the polyclonal anti-LG4/5 antibody on cell adhesion to the LG4/5 and LN332 protein. After saturating the wells, a solution of anti-LG4/5 antibody (10 μg/ml) was applied for one hour before performing the adhesion test with HT1080 cells (6·10^4 cells/well). (B, C) Effect of the LG4/5 protein and the peptide KKLRIKSKEK (SEQ ID NO: 1) in solution on syndecan-1 dependent adhesion to the LG4/5 fragment. The HT1080 cells were detached from the dishes and put into the wells (6·10^4 cells/well) as they were or in the presence of the LG4/5 protein (10 μg/ml) or the peptide KKLRIKSKEK (SEQ ID NO: 1) (20 μg/ml) as indicated on the graph. (A, B, C) The plates were incubated at 37° C. for 1 hour. After washing, the adherent cells were fixed and cell adhesion was measured as described in the methodology section. Cell adhesion in the presence of antibodies or competitor proteins was shown as a percentage of the cell adhesion obtained on the same substrate without competitor.
96-well plates were coated with the amounts indicated of peptide KKLRIKSKEK (SEQ ID NO: 1) or laminin 332 by adsorption at +4° C. for 16 to 18 hours. As before, the wells were saturated with a solution of 1% PBS-BSA for one hour. […]

A further data set has as its system normal human fibroblasts. Briefly: Cell adhesion test (crystal violet colorimetric), normal human fibroblasts. It counts as cell-based. The settings on record: 5 μg peptide or 1 μg LG4/5 protein immobilised, FIG. 14B. The procedure:
(A) Showing the binding of syndecan-1 to the peptide KKLRIKSKEK (SEQ ID NO: 1). A lysate of normal human fibroblasts and a lysate of normal human keratinocytes were prepared as described in the Materials and Methods section and 2 mg of each lysate were incubated with neutravidin beads not coated or coated with the biotinylated peptide KKLRIKSKEK (SEQ ID NO: 1). A positive control was performed with the keratinocyte lysate to compare the size and quantity of syndecan-1 in the 2 cell types. After washing, the material bound to the beads was digested with a mixture of heparitinase I and chondroitinase ABC to release the protein part of the syndecan-1 from the glycosaminoglycans. The samples were then analysed by SDS PAGE electrophoresis in an 8% acrylamide gel under non-reducing conditions and by immunoblotting with polyclonal anti-syndecan antibody H174. The position of molecular weight markers is shown on the left. (B, C) Cell adhesion of normal human fibroblasts to the peptide KKLRIKSKEK (SEQ ID NO: 1) and to the LG4/5 protein. In one case (B), 5 μg of peptide KKLRIKSKEK (SEQ ID NO: 1) and 1 μg of protein LG4/5 were immobilised on a 96-well plate and in the other (C), the peptide KKLRIKSKEK (SEQ ID NO: 1) was immobilised at the concentrations indicated in the abscissa. […] After washing, the adherent cells were fixed and cell adhesion was measured as described in the methodology section. […]

Data set [2] deals with normal human keratinocytes. Briefly: Cell viability test (XTT). The settings on record: 100 to 1 μg/ml, medium renewed every two days (repeated twice).
Protocol: NHKs were seeded in 96-well plates at 10^4 cells per well. After 24 hours, the culture media were removed and replaced with KBM-2 medium containing the concentrations of peptide [sequence] (SEQ ID NO: 1) (upper curve) or LG4/5 protein (lower curve) shown. After 48 h of contact at 37° C. the media were removed and this step was repeated twice. After 48 h of contact at 37° C. the media were replaced by XTT reagent. The plates were then placed in an incubator at 37° C. and the absorption was read after 6 hours. Controls with neither peptide nor protein were made on the same plate.
The effect of the peptide on the cell viability of the normal human keratinocytes was analysed using a colorimetric assay (XTT Cell Proliferation Kit, Roche Diagnostics, Meylan, France). A control with the LG4/5 protein was carried out in parallel. The chemical reaction of the test is based on the production of NADPH in living cells reducing yellow tetrazolium XTT salts to orange formazan salts. Absorption at 490 nm is measured using an ELISA plate reader. […] In this case, cell viability was calculated from the formula: % viability=(Abs. cells with peptide/Abs. control cells)×100.

B1: LG4/5 protein: purified recombinant LG4/5 domain of the alpha3 chain of pre-LN332 (laminin 332) (protein)
chain: DTPVASPRSVKVWQDACSPLPKTQANHGALQFGDIPTSHLLFKLPQELLKPRSQFAVDMQTTSSRGLVFHTGTKNSFMALYLSKGRLVFALGTDGKKLRIKSKEKCNDGKWHTVVFGHDGEKGRLVVDGLRAREGSLPGNSTISIRAPVYLGSPPSGKPKSLPTNSFVGCLKNFQLDSKPLYTPSSSFGVSSCLGGPLEKGIYFSEEGGHVVLAHSVLLGPEFKLVFSIRPRSLTGILIHIGSQPGKHLCVYLEAGKVTASMDSGAGGTSTSVTPKQSLCDGQWHSVAVTIKQHILHLELDTDSSYTAGQIPFPPASTQEPLHLGGAPANLTTLRIPVWKSFFGCLRNIHVNHIPVPVTEALEVQGPVSLNGCPDQ
Regarding B1, the figures for the “Area of the wound covered by cells (wound closure)” value in data set [1] (24 h) and in data set [1] (48 h) were 65% and 91%, respectively. In addition, in the data set on HT1080 cells (LG4/5 substrate 1 μg/well), the “Effect on HT1080 cell adhesion to the immobilised LG4/5 fragment” value is listed as “blocked adhesion to the immobilised LG4/5 fragment”. Further, in the data set with HT1080 cells (LN332 substrate 1 μg/well), the “Effect on HT1080 cell adhesion to LN332” value is given as “without affecting adhesion to LN332”. For the same molecule, the “Adhesion of human dermal fibroblasts to the immobilised substrate” value with normal human fibroblasts is recorded as “adhere”. Also, in data set [2], the “Cytotoxic effect on epidermal keratinocytes (percentage of viable cells vs controls)” value was “neither peptide […] (SEQ ID NO: 1) nor protein LG4/5 has any long-term cytotoxic effect”.
